The data set is described as follows: protease stability score; higher = more stable; yeast display proteolysis, trypsin and chymotrypsin.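 Further: log10 excess protease needed over predicted unfolded state with 0 meaning unfolded.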
Consider “DEEKEATKQVSEWIENMKSGDEDRLRELADKNAKVRYGDEEVHGMDQAAERWRNQRQKYDSLEVEVRDLKNHNGQVVVDQVERFNHNGKTDQRRVIITMERRPNHFVVQEVVQP”, for which the protease stability score is -0.331.

As to “DEEKEDKLLLKFARVVLQNNPEDLTRLMDPNAHLEVGDQTWHGREQVSDVLSKFAKRVDEVEVEDYDKRGNDLKVVMTLNINGKNIKVNLTFVVSNGRVTNVRLDPEAQKKIEK”, the protease stability score stood at 0.37.

In turn, “DEEKEETTVEKLAKAVNTGDPDQIEDLADKDVRATIGDRQVHGREEMDRNMKEWEDKIDHLELKSVDVQGESAHANLDQRHNGRHVRMVAIAHVENGRAVEVVFRDQ” yielded a protease stability score of -0.157.

As to “DEEKEFHKMIKELDKVAKRNDEQSVQNLADKDVEVTYGDKSYHGREVLRRMFRDQLTRADKVRITMKSYTVRGDKAHAVLNVVLDHNGRQEHIDVKVTAQADNGRVRLKHVNIP”, the protease stability score is -0.039.

Regarding “DEEKEKEAADRASTNDPDEFRKMVDEDARVVVGEKQWHGREKVQKFYEDQKKRIDHLRVEHVDKDGNRVVITQFYQVNGVRVHAIFIITVHNGRLKMRSVQFTDEHAERRMKKAVS”, the protease stability score was found to be 0.528.

Take “DEEKEKRTARQVADVLRSGNPDEMMKLADKDAEVRVGDHVLHGREEISKLMHELRRRIDHLEIKHVEVDNGSVNIVYVVRHNGKTEVVVLHVDFHNGKIREMTVRSG”: the protease stability score is 1.36.

Take “DEEKENRDIQTLMKNMVTGNEQEVMKNADKNVNLVVGDKTYHGREKIREFVRQLRERADHQEIKSVHATNGRAQADMVVNVNGKDIRFTVTMEASNGKAKHIQFDPNFFRKIQS”: the protease stability score is -0.079.

As for “DEEKEREMFKEFLNAFKSGDPDKLRKRMRQNVTLVYGDKSLHGRERAAKWFSELVKRVDHIEIESVKTDENHFDADVHLNVNGQNVIVHIRAKVENGRIVKVQYEYRDESQRRKLEK”, the protease stability score amounted to 1.18.

The sequence “DEEKHAESAIHHIIKVFKENNPDQFRRNADPNVKVNVGEHEVDGRDDLAKYMVDEANRVDHASYEIVHLDVRGDKARARVRVIVKFDGQERKYEYVFVFVEQNGEVVITKVQHQ” gave a protease stability score of 1.1.

Take “DEEKHAKEMADRFRKILDNGNEHSVEKMFDENARMSVGDRTIHGREKIAKKLITDVRRVDHLQVKVLSYHAHGDKIDLKVQQTLVVNGEDETRRYQMHLTRVNGRFVAVDAREQ”: the protease stability score is -0.07.

Sequence “DEEKHAKEVLDKFLKIAQEGDPKKMHELVDPNATFQVGDKEVHGRESAIESLQKFLEKVDHMRLEITEVRVRGNKFNIVAKLRADINGQKVDKRLIIVFTHHNGRLQMSHLRMD” gave a protease stability score of 2.34.

“DEEKHDDFARKLVRAVQSNDFRQQEKMFRQDVRMRVGDKEVHGREQFRDWLRTLDEEVDRYEVKSVTAQGDKVKIVAVFRINGKQFTLTVTIHVSNGKAVNMRINPDQQRQQER” showed a protease stability score of 0.104.

“DEEKHKQKLRKFAKDFVEGDPEEISKNVDEDVKVHIGDQDVSGREEAMKVIEEIKKRADHIQITSVEASNGRLRINVVIQVNGRNVTAHVTVDADNGRVKKVTMDPDQVRKLKS” gave a protease stability score of 0.827.

“DEEKIAQKAVDRVEEAMNRGDPDTMKHLLDKDARITYGDQQYHGREEVIKFMDEFVENVDHVNVEFKEVEVHNGRARASARVVYTHNGQSHDVKLEVVFLIQGDEVRLTHLHYG”: the protease stability score is 2.11.

Sequence “DEEKIARHVVRTWMENLKTGNFKEIEKMIDKDVEFEIGDKTVTGREEVRKRRKHEKDQADHIEVQVHDVRARGDKVNIDVVMEINNNGRTTTRRFVLVLSIHNGHAKIKMVTQG” had a protease stability score of 1.09.

Consider “DEEKIDRLLHEVVKAYLSGHSEKLKKLLKEDGQLHALSQTYHGKEQVMKVAEEFKRYGVELQIQDQKTEGDTLKVKAQAHKGGTTWEFEVKVKADGGKADELTIKVSEEAHKMIQRG”, for which the protease stability score is -0.298.

“DEEKIKQLLQKMIQYYVSGNKDHLKQLGKDDVQLHAADQTYHGLDQLLKVAEQFKKYGVKLEVKDVKVDGNTIHADVEVTMGGTQWTFKVTAEADGGKVDKVQFDVSEEAKKRIQKG” showed a protease stability score of 0.959.

Take “DEEKILKIIDRAVKAIQNGNEEEIRKLGMPNGEAQVGNDRNHGQDALVVMVKMYQKLGNEFEYKEKREEGDQVTTVVQVTFGGTTVEYEVNVQAEGGHIKRWEVRVDETFMKHVEKS”: the protease stability score is -0.125.

As for “DEEKILQDLIKTYQDLAKTNDFESMAKEADEDAHVNIGDKEVHGRESLNKHFRQLQKEVDHVEVDVRDYRVHGDKFEIKFVVNNQRDGQTDRKTVRIEYVQNGDKVRAKSFTTG”, the protease stability score is -0.176.

In the case of “DEEKILRVLKEVVKAIQNGNKEEVRKKGKPDVEVQLADERNRGVDQLVRLAEFDKKLGVQFEYKETRQKGGKMTTVVEVTLDGTTIRYEVHVEAEGGKVKRWEVRMDKKFIRIAQES”, the protease stability score came out at 0.077.

In the case of “DEEKKANHFNKEFDRNVQRNNETELRKMVDPNARVNVGEQNYSGRNKMVKIITDWLRKYDKFTIDVRRIDVHGNRIFIDFEMVVVSNGQRRTTEIRVVVEEHNGRLHIRVWEIT”, the protease stability score came out at 0.516.

The sequence “DEEKKARQALKNLVQNLRTGDEDELRKMIDKDATVRVGDEEIHGRERIAKTLLEEVKEVDHFEQHVRSITRDGDKLVIVVTQKNNHNGENQHRTVTIWIHERNGELLIQSMEYK” registered a protease stability score of 0.504.

As to “DEEKKARQLLKRWLRAVSQNDPKKLSEQMDPNARVEYGDKELHGMHQIENWLREQLKHIDHIEIDVKDMTVNGNEAQVQFRFVNRHNGKEDTKEARMQAELHNGTVKVRRIRYS”, the protease stability score turned out to be 0.389.

The sequence “DEEKKARRWFESFIEVFRSNDPDQAKKLADPNVRAEYGDKHYHGREEFMKHFITLAERVDHVDIELHSLRIDGNRIVMNMRYRLRYNGRTESNEVTVILVIKNGKLHIQEVREG” returned a protease stability score of 1.41.

On to “DEEKKDKASEMVRAEQKNNPDKVNELADKNAKFNIGDKRIHGREHLKKTIETENREARYDIDEVDVRAKNGKVDVKMSMRVRHNGRPDRFHVEQTVRFNNGKAQEVTRHKKK”, for which the protease stability score is -0.299.

On to “DEEKKRRVAQKIAKLVQTGDPRDVETMMRDDVRANYGDKEYHGRENVSTFADRQVKKVDHRHIESVKNSGEQLVVDMRFVINGHNVRFRISFEFHNGKIKQANFDPKAIEHQDS”, for which the protease stability score was -0.176.

For the sequence “DEEKLAENFLETMQNIAREGDEEKMADLFDPNAEIQVGDKSYQGREDVLELNRREFERYDHVRIDVKRFSVKNGQLDAEMSVTFSVNGKTDSHDQRLRATLHNGRLKAKHRTNG”, the protease stability score was 0.476.

For the sequence “DEEKLDKVMKMVRDALQKGDQEKAQKLVKPDGHFQVGDQELNGYDQVRKYYKKVKDLGAEAHVKKTDVRGNTFRLEYDARLKGVQVTIRLEVRVKDEKVDEARADMTEDYAKHVTKG”, the protease stability score stood at 0.53.

As for “DEEKLDVARQYFEAVERGDEDRALELVDKDVRVDVGEKRVRGREEAKTQIRREEEEIRLRVEHVDFTAKGDRVRVRVVQVENINGRPVRFHYTMNMTMHNGRIKRIDVQIPEEVQEQLRG”, the protease stability score is -0.146.

Sequence “DEEKLEELAEEILQMLQTGDPDQARRMADEDVRAEYGDKQYTGKERLVEVVRKLKDRADHARINSFEVEGENIVADFVMVVDGQERRVRMTARVENGRIKEVRVKTS” showed a protease stability score of 0.96.

“DEEKLEKFARNFEKVVERGDEDKFRSQADPNVQAVIGDKRIHGDEHLAHWMNKLRSHIDHFRVVDMRVQGEEIHLDVKFVVDGRRVRFIIEIEVHNGHITRFTVHVTDEEKWRRREK” came in with a protease stability score of 0.335.

In the case of “DEEKLHTIAKKAADIVQSGDEEKIIRLADPNAEMRIGDQELHGMDDAKRVLHEFMKRVDHVSVKTWHVQGNRIRLDVKFEVNGRDIRVELDITIENGEIDSMEFDPRARDAQKT”, the protease stability score came out at 0.183.

“DEEKLKKVIDTLQKALQNGNPDEIVKVIDKTVKFKLGDETFEGQEDARKVIKRLRDQGMEFHVERQEVTGDQAKVQTVWHAGDVEMHMHVTYDVDGDKVKRVEVRWDEEAKKAVKKG” had a protease stability score of 0.562.

As to “DEEKLKRIWQEIMDVWRTNNEDRMTNLFDENATVVVGDETYRGREDVNKALHEFNKRVDNINVTRLDVDGDKANLKAELTYNGRTIDITLRITLRNGRIEEMTVDPEVMKTARS”, the protease stability score was found to be 0.71.

“DEEKLMRNMIKKVSKLLKEGNWDEIANNADKNAKYDVGDTEVHGKEHAQEMHDRFRQNVDHAELSVTRVDVKGDKVQVHVDHSFTNNGRKHKFHLIFWASNVNGRMVIKSVQQK” returned a protease stability score of 0.565.

As to “DEEKLREMMKKWQKVVQEKNTDEAKKLYHPNGEWENGSERDQGVEKVVKAIKTAQEKGFEFQIREVEVKGDKATMIYDLRNGDKTVTFHVEMEVDGGRVKRVRAKVSEEAKKLLTKG”, the protease stability score stood at 0.511.

For “DEEKLRKDMEEAFRLVTQGNPEEFADRFRDNPRMHVGDKEYHGREEARKAITTLVKHIDRIELHHIDIQGDKAEVRYRATVNGKRADHVMRIEANNGQLQRASVDPDLVTSVLR”, the protease stability score was -0.347.

For “DEEKLRKMVETLIQAVQNGNLEKIRQMVKENVEFTLGDKTYKGQEDALKIVKHLQQVGAEAHVERQEITGDEAKVKTQWHVGDHTMEVEVVYYVRDDKVEKVEINWSEEAKKAIKAG”, the protease stability score was found to be 1.17.

On to “DEEKLRRMAERLIRAFDQGDRKRMEDNMDPNVELQVGETVFHGREQVTKALYELRKQVDHFELKSVDIKGEKVVVHVILNINGKHVEMNWVFEAHDGKVKEIKLNPDNQREAET”, for which the protease stability score amounted to 2.15.

“DEEKLVQLMDKAFKFIVNGNTEEAQKMGADNVRYEYVDKKYEGPDVAKKMAQLMQKVGVERTVKRQELKGDQATADFDYRKGDKEYRTTAEVKYEGDKIKEARVEVTDEVKEVVHQG” displayed a protease stability score of -0.249.

Consider “DEEKMDRAKEHYKAIQKGDHERARQLADPNATFVIGDKTIHGREEYADQMKKRRDHIRIEIKSVTFNEEEGRVDVKIEQVRQHNGKPKKFRQDVKFDVQGDKIHQISVTEKK”, for which the protease stability score came to 0.189.

“DEEKMEDFVRKLRTGDPKQMHDNVDKDATLTIGDKKWHGRERVATAIRKWLHRADHVRIDRYDIDGDHVRIDARVTFNGKNLKVVLEYRIHNGKVKSVVLKVTSTEVQRQIDKLLS” yielded a protease stability score of 1.37.

“DEEKMEIVLNAFTAMATNNEEDIERLMDPNVKVTIGDTVIHGREQLQKNADRHRRSARINIKSMSAEVQGDTVRVVVNATREHNGRPQTFQLRAVAVAHNGKVKELNVEEKQ” returned a protease stability score of 1.48.

“DEEKMKEFVKNLNTGNNHRLRKMMDEDVKVVVGDKRYKGDEQAAQFWRRILEQADDIRVNDFKVSGNTAHVDVVINWNGKHIVLDVHVEIHNGKVKQIRIEVRDEEVKRAQEEMES” came in with a protease stability score of 1.25.

For the sequence “DEEKMLRIAKKMVDALKNGDKDKVKKLGAEGVKVHAMDEEVEGPDQLAKYAKKFKDIGVHVEYKETEYKGDTVTFHTEAEKGDAKVRFEVHYVVKGDKVQKVEVRVDKDQLTEFRKS”, the protease stability score amounted to 0.524.

“DEEKNDDTARKFLEVFQEGNEDDIRRLADEDVTVEIGDSTYHGREQALTAVREWSKTVDHYSIESIHADNGRAHLHAKVVVNGKTVNLDLVVDVRNGKVKKVMIDPDRLRELKK” displayed a protease stability score of 0.921.

Take “DEEKNEEWAEQAQHLLETGDPDKFRTMIDENAKADVGDKRLHGRETIVEEIDRMTERVDHIQITRVSAKGNRVRVKMVLRVNGVNLDVVMVFNYHNGRIKSVQVEYRNREQQKRFES”: the protease stability score came out at 0.388.

(Values after the NTF2 design screens of Basanta et al. (2020).)
